From patent publication US20240092891A1

Target: human CLDN18.1 (human) (UniProt P56856)
Experiment: flow cytometry on human CLDN18.1-HEK293 cells, antibody at 100 µg/mL

Sequence of human CLDN18.1 (human) (P56856 whole entry): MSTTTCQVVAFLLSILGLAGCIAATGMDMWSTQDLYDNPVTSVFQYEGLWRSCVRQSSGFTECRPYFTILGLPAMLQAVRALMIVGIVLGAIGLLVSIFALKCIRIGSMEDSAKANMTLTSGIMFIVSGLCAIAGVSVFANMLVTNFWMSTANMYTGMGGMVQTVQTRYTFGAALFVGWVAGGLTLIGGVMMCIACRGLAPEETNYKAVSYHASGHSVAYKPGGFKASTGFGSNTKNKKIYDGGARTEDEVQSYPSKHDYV

positive rate of cell binding: 5.5%
B1: humanized antibody NA7-S-H2 (Fc fusion, not shown: a dimerising Fc or GST)
chain: EVQLVESGGGLVQPGGSLRLSCAASGSFFRIVAMGWYRQAPGKGRELVATITRGGSTYYADSMKGRSTISRDNAKNTVYLQMNSLKPEDTAVYYCNVRVEVPFMQPNDYWGQGTLVTVSS
